B1: CCDC112 recombinant protein (coiled-coil domain-containing protein 112) (ligand)
chain: MEKDKHSHFYNQKSDFRIEHSMLEELENKLIHSRKTERAKIQQQLAKIHNNVKKLQHQLKDVKPTPDFVEKLREMMEEIENAINTFKEEQRLIYEELIKEEKTTNNELSAISRKIDTWALGNSETEKAFRAISSKVPVDKVTPSTLPEEVLDFEKFLQQTGGRQGAWDDYDHQNFVKVRNKHKGKPTFMEEVLEHLPGKTQDEVQQHEKWYQKFLALEERKKESIQIWKTKKQQKREEIFKLKEKADNTPVLFHNKQEDNQKQKEEQRKKQKLAVEAWKKQKSIEMSMKCASQLKEEEEKEKKHQKERQRQFKLKLLLESYTQQKKEQEEFLRLEKEIREKAEKAEKRKNAADEISRFQERDLHKLELKILDRQAKEDEKSQKQRRLAKLKEKVENNVSRDPSRLYKPTKGWEERTKKIGPTGSGPLLHIPHRAIPTWRQGIQRRV
notes: also called CCDC112 protein; full-length CCDC112 protein

For test [1], the target named is T1, CD30 extracellular region protein fragment labeled with hFc (UniProt P28908 19-385).
T1 construct: extracellular domain; Bought from ACRO Biosystems or Sino Biological; not shown: human Fc label (hFc)
T1 sequence (looked up): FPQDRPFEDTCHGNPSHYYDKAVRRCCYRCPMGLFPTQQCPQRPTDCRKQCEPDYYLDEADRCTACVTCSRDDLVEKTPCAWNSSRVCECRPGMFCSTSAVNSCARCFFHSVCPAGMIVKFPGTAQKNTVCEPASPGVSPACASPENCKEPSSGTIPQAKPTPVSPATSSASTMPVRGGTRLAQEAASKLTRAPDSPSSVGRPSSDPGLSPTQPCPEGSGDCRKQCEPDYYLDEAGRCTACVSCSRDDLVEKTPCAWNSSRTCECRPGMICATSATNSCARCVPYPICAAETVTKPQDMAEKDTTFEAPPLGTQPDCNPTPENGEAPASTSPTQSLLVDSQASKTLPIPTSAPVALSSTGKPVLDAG
The test can be described thus: ELISA at pH 6.5, coated CCDC112 gradient, CD30-hFc 0.5 µg/mL; table gives no unit, unit from the x axis; target from the plot title (legend names LTBR). On the procedure: (§1) Specifically, a special plate for ELISA (costar, ME, USA) was used. Firstly, different concentrations of CCDC112 recombinant proteins were dissolved in 100 μL of ELISA coating solution (Solarbio, Beijing, China) to coat the plate, and the negative control was coated with 100 μL of coating solution without protein. The plate was coated overnight at 4° C. After washing with PBST, 100 μL of 5% BSA dissolved in PBS (VWR, PA, USA) was used for blocking in the incubator at 37° C. for 90 min. […] The above-mentioned receptor protein was labeled with hFc (P-Fc) and binding was carried out in the incubator at 37° C. for 60 min. After washing with PBST, a specific anti-human Fc fragment antibody (Abcam, MA, USA) diluted in PBS was used for incubation and binding at 37° C. for 30 min. After washing with PBST, chromogenic solution (Sangon, Shanghai, China) was added at 100 μL per well for color development and reacted in an incubator for 5-30 min, and then 50 μL of stop solution (Sangon, Shanghai, China) was added, and chromogenic reading was then carried out under a microplate reader (Thermo Fisher, MA, USA) at 450 nm.
On the technique in general: ELISA stands for enzyme-linked immunosorbent assay.

Test [2] concerns the target T1, CD30 extracellular region protein …. The test can be described thus: ELISA at pH 5.5, coated CCDC112 gradient, CD30-hFc 0.5 µg/mL; table gives no unit, unit from the x axis; target from the plot title (legend names LTBR). The method, then: as §1
Test [3] addresses T2, LTBR-hFc (LTBR extracellular region protein fragment labeled with hFc) (UniProt P36941 31-227).
T2 construct: extracellular domain; Bought from ACRO Biosystems or Sino Biological; also called lymphotoxin-beta receptor; TNFRSF3
Description: ELISA at pH 6.5, coated CCDC112 gradient, LTBR-hFc 0.5 µg/mL; table gives no unit, unit from the x axis; target from the plot title (legend names CD30). On the procedure:
as §1

Test [4] deals with T1, CD30 extracellular region protein …. Description: ELISA at pH 6, coated CCDC112 gradient, CD30-hFc 0.5 µg/mL; table gives no unit, unit from the x axis; target from the plot title (legend names LTBR). On the procedure:
as §1

Test [5] has the same target. The test can be described thus: ELISA at pH 7, coated CCDC112 gradient, CD30-hFc 0.5 µg/mL; value lies above the highest concentration shown, curve has no plateau; table gives no unit, unit from the x axis; target from the plot title (legend names LTBR). On the procedure:
as §1

Test [6] deals with T2, LTBR-hFc (LTBR extracellular region …). The test can be described thus: ELISA at pH 5.5, coated CCDC112 gradient, LTBR-hFc 0.5 µg/mL; table gives no unit, unit from the x axis; target from the plot title (legend names CD30). On the procedure: as §1
Test [7] has the same target. The test can be described thus: ELISA at pH 7.5, coated CCDC112 gradient, LTBR-hFc 0.5 µg/mL; ambiguous fit far outside the range shown, curve nearly flat; table gives no unit, unit from the x axis; target from the plot title (legend names CD30). The method, then: as §1
The target is the same in test [8]. Description: ELISA at pH 6, coated CCDC112 gradient, LTBR-hFc 0.5 µg/mL; table gives no unit, unit from the x axis; target from the plot title (legend names CD30). On the procedure: as §1
The target of test [9] is T3, CCDC112 on HCT116 tumor cells (including HCT116 cells stably overexpressing CCDC112) (human, UniProt Q8NEF3 1-446).
T3 construct: also called CCDC112 on the surface of tumor cells; HCT116-CCDC112
T3 sequence: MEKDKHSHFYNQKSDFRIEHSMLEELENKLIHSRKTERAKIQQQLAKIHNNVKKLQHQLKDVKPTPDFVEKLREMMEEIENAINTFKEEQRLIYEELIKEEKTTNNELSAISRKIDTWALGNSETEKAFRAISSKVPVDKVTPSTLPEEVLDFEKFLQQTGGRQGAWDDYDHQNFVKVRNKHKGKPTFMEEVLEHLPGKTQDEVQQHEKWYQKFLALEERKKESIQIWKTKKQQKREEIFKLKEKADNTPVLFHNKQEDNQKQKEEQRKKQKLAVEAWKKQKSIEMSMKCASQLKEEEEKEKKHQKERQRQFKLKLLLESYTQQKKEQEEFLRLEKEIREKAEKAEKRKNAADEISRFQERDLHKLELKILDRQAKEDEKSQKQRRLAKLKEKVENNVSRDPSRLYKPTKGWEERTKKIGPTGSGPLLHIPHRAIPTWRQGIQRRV
Description: flow cytometry on HCT116 cells overexpressing CCDC112; table gives no unit, unit from the x axis 'Abs conc. nM'. The method, then:
Further, the specific binding of the CCDC112 antibody to the antigen was verified by flow cytometry. The HCT116 cell line overexpressing CCDC112 was constructed by stable transfection of liposome, and the cells and the CCDC112 antibody were co-incubated, the unbound antibody was washed away, and then the anti-mouse secondary antibody (FITC modified) was used for flow cytometry and the percentage of cells that stain positive was analyzed.

Test [10] has as its target B1. The test can be described thus: ELISA, coated full-length CCDC112 protein, antibody titrated; table gives no unit, unit from the x axis Ab(nM).
Test [11] has as its target B1. The test can be described thus: bio-layer interferometry (ProbeLife Gator), antibody (200 nM) immobilized, antigen 15 nM to 1.875 nM. The method, then: The dissociation constant (KD) of the antibody of the invention binding to human CCDC112 was determined using bio-layer interferometry on ProbeLife Gator according to conventional procedures.
For orientation: BLI is a label-free optical method that tracks binding on a fibre tip over time.

Drawing on patent US20240101663A1 (BIOTROY THERAPEUTICS, published 2024), this text covers EC50 and Kd for 2 molecules.

T2 sequence (P36941 31-227): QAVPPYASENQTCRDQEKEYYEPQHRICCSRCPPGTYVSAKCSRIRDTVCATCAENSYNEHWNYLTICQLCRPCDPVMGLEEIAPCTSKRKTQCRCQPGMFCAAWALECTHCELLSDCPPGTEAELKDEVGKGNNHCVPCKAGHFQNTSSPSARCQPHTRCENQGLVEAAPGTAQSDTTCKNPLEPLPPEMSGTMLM

With B1, the EC50 worked out at 4.61 µg/mL in test [1]; 2.11 µg/mL in test [2]; 1.94 µg/mL in test [3]; 1.91 µg/mL in test [4]; 16.1 µg/mL in test [5]; 0.922 µg/mL in test [6]. Moreover, the values for the EC50 in test [7] and in test [8] were approximately 18100 µg/mL and 1.26 µg/mL, respectively.

B2: monoclonal antibody S-78-02 (antibody, V domains shown)
VH: QVQLQQSGPELVKPGASVKIPCKTSGYSFTDYNIDWVKQGLGESLEWIGDINPNYGGTMYNQKFKGKATLTVDKSSNTAYMELRSLTSEDTAVYYCAHDEFIYWGQGTLVTVSA
VL: DIQMNQSPSSMFASLGERVTITCRASQDINTYLSWIQRKPGKSPKTLIYRANRLVDGVPSRFSGSGSGQDYSLTISSLEYEDMGIYYCLQYDEFPHTFGGGTKLEIK
notes: Mouse hybridoma monoclonal antibody raised against CCDC112 protein and detected with an anti-mouse secondary antibody; also called CCDC112 antibody; CCDC112 monoclonal antibody
Turning to B2, the 50% effective concentration (EC50) in test [9] came out at 0.98 nM; in [10] it was 0.0644 nM. Also, the Kd in test [11] is 0.468 nM.

As a reminder, the EC50 is the concentration at which the effect is half-maximal. A word on the Kd: it is the equilibrium constant for the complex coming apart.
